In PMC12629992:

Target: native myeloperoxidase monomer (one heavy and one light chain) (human) (UniProt P05164)
Test: mass photometry; native MPO 100 nM in 20 mM HEPES pH 7.5, 200 mM NaCl, without or with 10 or 50 mM DTT, diluted 1:10 before measuring; dimer to monomers

## native myeloperoxidase monomer (one heavy and one light chain) (from UniProt P05164 279-745) (enzyme)
  stoichiometry N: 2
